In general, Kd refers to a measure of binding affinity in units of concentration. Read a high Kd as a looser complex.

What all share (experiment): fluorescence polarisation; FAM-labelled peptide with GST-tagged domains or MBP-tagged full-length UHRF1; as described in ref. 4, plotted as change in anisotropy
Holding throughout (details): both partners purified
On the technique in general: Fluorescence polarisation rises when a labelled molecule tumbles more slowly, as on binding a larger partner.

Assay [1] has as its target T1, GST-tagged UHRF1 tandem Tudor domain (TTD, a.a. 125–285) ( (printed UniProt entry is …, UniProt Q96T88 125-285)).
T1 construct: also called UHRF1 TTD; source: recombinant GST fusion
T1 sequence (looked up): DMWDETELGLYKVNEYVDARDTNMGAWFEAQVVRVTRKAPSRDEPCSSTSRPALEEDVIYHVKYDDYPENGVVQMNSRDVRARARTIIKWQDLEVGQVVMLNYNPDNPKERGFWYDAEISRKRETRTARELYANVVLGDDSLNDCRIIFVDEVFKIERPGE

Assay [2] addresses T2, GST-tagged UHRF1 TTD–PHD R295A/R296A ( (printed UniProt entry is …, UniProt Q96T88 125-364, R295A | R296A)).
T2 construct: also called mutation of L2 (R295A/R296A); TTD–PHD mutant; source: recombinant GST fusion
T2 sequence (looked up): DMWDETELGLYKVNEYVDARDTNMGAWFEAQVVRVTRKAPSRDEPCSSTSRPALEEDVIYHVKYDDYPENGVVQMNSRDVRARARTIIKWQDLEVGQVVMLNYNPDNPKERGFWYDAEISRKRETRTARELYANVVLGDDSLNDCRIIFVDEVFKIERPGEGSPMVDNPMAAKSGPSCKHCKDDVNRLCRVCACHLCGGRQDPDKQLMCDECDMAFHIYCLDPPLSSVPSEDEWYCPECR

Assay [3] concerns the target T3, GST-tagged UHRF1 TTD–PHD S298E ( (printed UniProt entry is …, UniProt Q96T88 125-364, S298E)).
T3 construct: also called phospho-mimetic mutation in L2; source: recombinant GST fusion
T3 sequence (looked up): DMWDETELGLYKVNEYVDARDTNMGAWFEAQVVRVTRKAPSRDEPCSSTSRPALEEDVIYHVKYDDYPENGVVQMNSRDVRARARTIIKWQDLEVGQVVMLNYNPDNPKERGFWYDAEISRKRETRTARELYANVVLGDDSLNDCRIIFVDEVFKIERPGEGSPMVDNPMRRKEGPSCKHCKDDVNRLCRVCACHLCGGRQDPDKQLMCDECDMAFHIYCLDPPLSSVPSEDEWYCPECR

Assay [4] addresses T4, UHRF1 full-length (a.a. 1–793), MBP fusion ( (printed UniProt entry is …, UniProt Q96T88 1-793)).
T4 construct: also called recombinant full-length UHRF1; full-length UHRF1; not shown: MBP, N-terminal, kept
T4 sequence (looked up): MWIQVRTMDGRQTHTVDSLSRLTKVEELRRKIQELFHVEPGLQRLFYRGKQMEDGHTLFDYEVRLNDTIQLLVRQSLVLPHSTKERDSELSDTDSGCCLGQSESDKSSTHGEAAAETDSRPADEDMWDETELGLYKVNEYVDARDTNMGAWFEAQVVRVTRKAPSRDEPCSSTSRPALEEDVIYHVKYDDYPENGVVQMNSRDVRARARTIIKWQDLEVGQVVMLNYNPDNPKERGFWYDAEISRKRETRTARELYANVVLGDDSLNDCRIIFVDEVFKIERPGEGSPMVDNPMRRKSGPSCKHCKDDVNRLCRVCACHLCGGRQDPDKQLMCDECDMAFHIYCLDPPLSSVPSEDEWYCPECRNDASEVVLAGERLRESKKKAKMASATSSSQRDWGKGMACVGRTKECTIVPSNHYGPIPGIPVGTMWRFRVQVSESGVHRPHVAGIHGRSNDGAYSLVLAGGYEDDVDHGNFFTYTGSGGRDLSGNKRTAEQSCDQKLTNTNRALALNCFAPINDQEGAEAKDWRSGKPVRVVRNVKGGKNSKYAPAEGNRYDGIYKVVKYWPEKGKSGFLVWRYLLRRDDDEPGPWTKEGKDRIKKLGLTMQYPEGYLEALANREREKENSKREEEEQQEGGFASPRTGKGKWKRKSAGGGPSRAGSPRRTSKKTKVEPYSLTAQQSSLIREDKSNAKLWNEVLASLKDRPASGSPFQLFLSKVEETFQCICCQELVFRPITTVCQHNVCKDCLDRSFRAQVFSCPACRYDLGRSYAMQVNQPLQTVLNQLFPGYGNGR

Where no end group is shown, it is not given here.

B1: FAM-LIG1(118–130)K126me2 peptide (peptide)
peptide: {FAM}-IPKRRTARK(Me2)QLPK
modifications: not fully specified (C-terminus); printed as FAM-LIG1(118–130)K126me2 peptide
notes: DNA ligase 1 (LIG1), residues 118-130; also called FAM-LIG1K126me2; LIG1K126me2 peptide; source: bought: GenScript (synthetic peptide)
As to B1, the results for the dissociation constant Kd in assay [1] and in assay [4] were 30 to 80 nM and 41 nM, respectively. The binding result in assay [2] and in assay [3] was “binds” throughout.

Source of the values: PMC7585203 (Epigenetics & Chromatin, 2020).
